Measured values: publication PMC4243239 (Nature communications, 2014)

T1: B. subtilis FtsZ with a 15-residue recombinant N-terminal T7 epitope tag (B. subtilis, UniProt P17865 1-382)
T1 sequence (looked up): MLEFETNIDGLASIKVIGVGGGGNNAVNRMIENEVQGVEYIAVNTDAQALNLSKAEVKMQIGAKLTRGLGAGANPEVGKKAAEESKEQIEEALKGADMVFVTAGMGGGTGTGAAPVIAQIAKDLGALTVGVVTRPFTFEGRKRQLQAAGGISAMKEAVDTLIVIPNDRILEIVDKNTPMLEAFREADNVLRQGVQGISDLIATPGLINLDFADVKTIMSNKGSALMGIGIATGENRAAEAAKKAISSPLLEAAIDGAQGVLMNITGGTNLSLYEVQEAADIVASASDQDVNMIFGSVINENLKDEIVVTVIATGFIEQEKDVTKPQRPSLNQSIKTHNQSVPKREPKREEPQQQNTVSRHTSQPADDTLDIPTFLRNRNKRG

T2: B. subtilis FtsZ, untagged (B. subtilis, UniProt P17865 1-382)
T2 sequence: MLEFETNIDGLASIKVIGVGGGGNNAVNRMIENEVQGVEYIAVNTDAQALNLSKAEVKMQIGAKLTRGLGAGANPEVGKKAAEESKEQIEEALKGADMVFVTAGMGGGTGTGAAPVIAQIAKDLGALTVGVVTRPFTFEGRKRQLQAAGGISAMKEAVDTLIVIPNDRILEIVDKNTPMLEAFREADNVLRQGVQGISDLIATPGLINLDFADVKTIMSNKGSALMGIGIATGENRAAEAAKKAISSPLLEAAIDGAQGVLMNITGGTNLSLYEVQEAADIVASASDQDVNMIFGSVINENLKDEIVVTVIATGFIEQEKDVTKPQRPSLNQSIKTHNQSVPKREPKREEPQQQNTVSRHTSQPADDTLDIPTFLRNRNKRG


Assays:
crystal structure = biological target: the molecule itself; assay: crystal structure
[1] = biological target: T1, B. subtilis FtsZ with a 15-residue …; assay: cross-linking
SEC-MALS = biological target: the molecule itself; assay: SEC-MALS
[2] = biological target: T2, B. subtilis FtsZ, untagged; assay: SPR

stoichiometry N [1] | Kd [2] [µM] | Binder | binding result (crystal structure) | binding result (SEC-MALS)
1 EzrA:FtsZ | – | B. subtilis EzrA cytoplasmic domain lacking the N-terminal 21 residue trans-membrane helix, BsEzrA_(22-562) (domain or fragment, UniProt O34894 22-562, looked up) RKKIYAEIDRLESWKIEILNRSIVEEMSKIKHLKMTGQTEEFFEKWREEWDEIVTAHMPKVEELLYDAEENADKYRFKKANQVLVHIDDLLTAAESSIEKILREISDLVTSEEKSREEIEQVRERYSKSRKNLLAYSHLYGELYDSLEKDLDEIWSGIKQFEEETEGGNYITARKVLLEQDRNLERLQSYIDDVPKLLADCKQTVPGQIAKLKDGYGEMKEKGYKLEHIQLDKELENLSNQLKRAEHVLMTELDIDEASAILQLIDENIQSVYQQLEGEVEAGQSVLSKMPELIIAYDKLKEEKEHTKAETELVKESYRLTAGELGKQQAFEKRLDEIGKLLSSVKDKLDAEHVAYSLLVEEVASIEKQIEEVKKEHAEYRENLQALRKEELQARETLSNLKKTISETARLLKTSNIPGIPSHIQEMLENAHHHIQETVNQLNELPLNMEEAGAHLKQAEDIVNRASRESEELVEQVILIEKIIQFGNRFRSQNHILSEQLKEAERRFYAFDYDDSYEIAAAAVEKAAPGAVEKIKADISA | binds | –
– | 13.7 ± 1.5 | BsEzrA_(22–217), spectrin repeats one and two of B. subtilis EzrA (domain or fragment, UniProt O34894 22-217, looked up) RKKIYAEIDRLESWKIEILNRSIVEEMSKIKHLKMTGQTEEFFEKWREEWDEIVTAHMPKVEELLYDAEENADKYRFKKANQVLVHIDDLLTAAESSIEKILREISDLVTSEEKSREEIEQVRERYSKSRKNLLAYSHLYGELYDSLEKDLDEIWSGIKQFEEETEGGNYITARKVLLEQDRNLERLQSYIDDVPK | – | binds
